Reference: patent US20240116985A1 (published 2024)
Starred links: 1 amine or outer side, 2 acyl side, 3 side chain; linkers in the order of their positions; H or OH if unused. Positions of bridges follow the written chain, without caps; N, C: chain ends. Non-standard residues stand in square brackets, D forms with d. Primed or numbered codes have the meaning given here. PyrS2″ = (S)-3-amino-1-((pent-4-en-1-yloxy)carbonyl)pyrrolidine-3-carboxylic acid (stapling residue), C=CCCCOC(=O)N1CC[C@@](N[*:1])(C(=O)[*:2])C1; B5(4) = 2,2-bis(4-pentenyl)glycine = 2-amino-2-(pent-4-en-1-yl)hept-6-enoic acid (stitching residue), C=CCCCC(CCCC=C)(N[*:1])C(=O)[*:2]; PyrS2 = (S)-3-amino-1-((pent-4-en-1-yloxy)carbonyl)pyrrolidine-3-carboxylic acid, C=CCCCOC(=O)N1CC[C@@](N[*:1])(C(=O)[*:2])C1; Phe(3-COOH) = N[C@@H](Cc1cccc(C(=O)O)c1)C(=O)O; 2F3MeF = Cc1cccc(C[C@H](N[*:1])C(=O)[*:2])c1F; Bta = N[C@@H](Cc1csc2ccccc12)C(=O)O; αAllylPro = C=CC[C@@]1(C(=O)O)CCCN1; tBuAla = CC(C)(C)C[C@H](N)C(=O)O; 3Thi = N[C@@H](Cc1ccsc1)C(=O)O

Columns and labels:
Test in all cases: cell-based or functional assay
[1] = molecular target: T1, B-cat-Halo (beta-catenin HaloTag construct expressed in HEK293 cells) (UniProt P35222 1-781)
T1 sequence (looked up): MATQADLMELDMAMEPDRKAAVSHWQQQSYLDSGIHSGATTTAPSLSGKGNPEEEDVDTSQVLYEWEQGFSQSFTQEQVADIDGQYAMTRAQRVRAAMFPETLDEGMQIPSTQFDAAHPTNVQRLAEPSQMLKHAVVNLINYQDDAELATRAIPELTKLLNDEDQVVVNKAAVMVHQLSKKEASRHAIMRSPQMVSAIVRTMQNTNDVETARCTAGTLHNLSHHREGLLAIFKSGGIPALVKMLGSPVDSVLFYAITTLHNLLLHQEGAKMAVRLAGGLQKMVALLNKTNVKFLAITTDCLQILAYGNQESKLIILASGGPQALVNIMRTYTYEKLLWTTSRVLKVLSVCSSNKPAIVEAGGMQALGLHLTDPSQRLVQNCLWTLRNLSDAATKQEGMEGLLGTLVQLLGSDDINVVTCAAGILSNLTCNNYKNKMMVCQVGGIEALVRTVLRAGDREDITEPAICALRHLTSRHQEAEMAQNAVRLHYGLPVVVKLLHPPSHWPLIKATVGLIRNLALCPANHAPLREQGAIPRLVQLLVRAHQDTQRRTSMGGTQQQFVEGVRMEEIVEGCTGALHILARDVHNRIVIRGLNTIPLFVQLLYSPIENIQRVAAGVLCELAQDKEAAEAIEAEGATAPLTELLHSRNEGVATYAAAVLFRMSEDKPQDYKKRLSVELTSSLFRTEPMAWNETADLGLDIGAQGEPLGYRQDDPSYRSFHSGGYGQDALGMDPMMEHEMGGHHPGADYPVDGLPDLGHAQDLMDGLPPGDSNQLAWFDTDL

[2] = molecular target: T2, beta-catenin in DLD1 TCF/LEF luciferase reporter cells (UniProt P35222 2-781)
T2 sequence (looked up): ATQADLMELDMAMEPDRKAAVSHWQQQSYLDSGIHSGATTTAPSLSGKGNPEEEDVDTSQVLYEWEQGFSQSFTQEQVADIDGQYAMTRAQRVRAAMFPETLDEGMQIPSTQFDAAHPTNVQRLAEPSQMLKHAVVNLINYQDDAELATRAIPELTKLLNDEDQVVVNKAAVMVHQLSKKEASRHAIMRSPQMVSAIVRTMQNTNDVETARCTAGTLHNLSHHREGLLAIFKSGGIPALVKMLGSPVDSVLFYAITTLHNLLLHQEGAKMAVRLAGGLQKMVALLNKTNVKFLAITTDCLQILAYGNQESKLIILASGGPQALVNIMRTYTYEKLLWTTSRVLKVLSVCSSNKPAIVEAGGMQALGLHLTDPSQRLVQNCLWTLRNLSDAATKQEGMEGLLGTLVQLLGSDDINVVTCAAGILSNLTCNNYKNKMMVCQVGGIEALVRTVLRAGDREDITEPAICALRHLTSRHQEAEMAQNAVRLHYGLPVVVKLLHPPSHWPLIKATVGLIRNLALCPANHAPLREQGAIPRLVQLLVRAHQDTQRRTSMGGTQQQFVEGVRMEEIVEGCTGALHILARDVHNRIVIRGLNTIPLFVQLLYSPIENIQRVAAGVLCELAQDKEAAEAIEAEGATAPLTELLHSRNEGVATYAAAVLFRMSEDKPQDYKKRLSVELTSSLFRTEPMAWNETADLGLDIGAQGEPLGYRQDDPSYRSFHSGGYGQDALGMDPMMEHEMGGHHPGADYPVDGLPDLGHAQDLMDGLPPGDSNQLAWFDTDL

[3] = molecular target: T3, beta-catenin in DLD1 TCF/LEF luciferase reporter cells (UniProt P35222 1-781)
T3 sequence (looked up): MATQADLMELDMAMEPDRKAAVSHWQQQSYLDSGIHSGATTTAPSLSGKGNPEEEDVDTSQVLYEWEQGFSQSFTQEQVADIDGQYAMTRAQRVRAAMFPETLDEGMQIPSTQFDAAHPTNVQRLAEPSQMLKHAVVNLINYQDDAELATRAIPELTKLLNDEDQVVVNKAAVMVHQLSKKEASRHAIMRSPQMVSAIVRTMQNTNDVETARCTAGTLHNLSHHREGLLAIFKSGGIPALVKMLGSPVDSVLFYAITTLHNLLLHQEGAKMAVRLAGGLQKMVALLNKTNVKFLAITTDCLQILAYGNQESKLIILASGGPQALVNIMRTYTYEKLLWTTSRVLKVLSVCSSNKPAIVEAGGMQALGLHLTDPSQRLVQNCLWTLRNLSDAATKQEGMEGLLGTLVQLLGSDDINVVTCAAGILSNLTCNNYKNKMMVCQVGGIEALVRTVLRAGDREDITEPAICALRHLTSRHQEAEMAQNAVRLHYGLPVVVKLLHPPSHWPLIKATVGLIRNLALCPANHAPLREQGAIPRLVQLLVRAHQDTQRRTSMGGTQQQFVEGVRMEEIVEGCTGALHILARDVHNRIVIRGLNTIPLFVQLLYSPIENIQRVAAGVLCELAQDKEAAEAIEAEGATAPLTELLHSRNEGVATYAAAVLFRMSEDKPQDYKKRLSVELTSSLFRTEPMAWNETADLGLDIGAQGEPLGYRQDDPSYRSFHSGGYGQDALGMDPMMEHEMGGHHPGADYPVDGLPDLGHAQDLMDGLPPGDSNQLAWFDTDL

B-cat-Halo = molecular target: T4, B-cat-Halo (UniProt P35222 1-781)
T4 sequence (looked up): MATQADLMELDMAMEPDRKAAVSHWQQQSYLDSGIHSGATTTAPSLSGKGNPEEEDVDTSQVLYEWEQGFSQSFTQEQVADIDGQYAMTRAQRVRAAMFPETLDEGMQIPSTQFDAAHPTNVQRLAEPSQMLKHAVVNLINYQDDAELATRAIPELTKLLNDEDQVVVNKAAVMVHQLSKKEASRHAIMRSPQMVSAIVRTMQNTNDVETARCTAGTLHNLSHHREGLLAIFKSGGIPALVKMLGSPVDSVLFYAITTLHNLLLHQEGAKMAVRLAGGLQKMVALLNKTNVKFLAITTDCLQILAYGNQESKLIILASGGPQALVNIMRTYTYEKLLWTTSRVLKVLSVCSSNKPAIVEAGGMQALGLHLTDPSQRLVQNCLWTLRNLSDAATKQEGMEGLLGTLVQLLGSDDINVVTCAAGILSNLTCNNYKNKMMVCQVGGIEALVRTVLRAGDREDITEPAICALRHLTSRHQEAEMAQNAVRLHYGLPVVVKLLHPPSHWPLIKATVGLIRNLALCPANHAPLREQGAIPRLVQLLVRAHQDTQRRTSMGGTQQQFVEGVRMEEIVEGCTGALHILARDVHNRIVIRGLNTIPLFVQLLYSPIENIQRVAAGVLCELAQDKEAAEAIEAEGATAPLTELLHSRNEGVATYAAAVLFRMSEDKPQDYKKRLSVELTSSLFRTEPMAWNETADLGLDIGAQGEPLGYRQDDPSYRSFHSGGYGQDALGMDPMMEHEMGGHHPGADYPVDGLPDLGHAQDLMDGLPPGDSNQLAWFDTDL

| Binder | NanoBRET Abs IC50 [1] [µM] | DLD1 4% Abs IC50 [2] [µM] | DLD1 4% Abs IC50 [3] [µM] | NanoBRET Abs IC50 (B-cat-Halo) [µM] |
| --- | --- | --- | --- | --- |
| Ac-[αAllylPro]D[tBuAla][B5(4)]D[Phe(3-COOH)]QAFL[PyrS2″][2F3MeF][Bta]A-NH2 (staple 1-4, 4-11) [I-2057] | 1.5 | 4 |  |  |
| Ac-[αAllylPro]D[tBuAla][B5(4)]D[Phe(3-COOH)]AAFL[PyrS2][3Thi][Bta]NLLLLL-NH2 (staple 1-4, 4-11; also: later eluting staple isomer) [I-2280] |  |  | > 20 | > 20 |
